Test results taken from the supplement of paper PMC9170038.

Test system: MS2 coat protein
Experiment: apparent KD of MS2 coat protein; designed switch direction (-1 OFF switch, 1 ON switch): -1; higher = weaker reporter binding
Summary of the method: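 An oligonucleotide input, 200 uM small-molecule ligand, or no input was present during titration of SNAP-549-labelled MS2 coat protein, which was doubled from 0.7 or 1.5 nM to 3 µM. Designed RNA switches had been transcribed on Illumina chips by stalled E. coli RNA polymerase. Apparent KD per design is the median over clusters of curves fitted to normalised cluster fluorescence.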

[1] = Eterna round: R95, input ligand: FMN 200 uM
[2] = Eterna round: R95, input ligand: microRNA oligo, concentration not stated
[3] = Eterna round: R95, input ligand: none
[4] = input ligand: microRNA oligo, concentration not stated

AGAAAUGCCCAUGGCCGCAAGCCUUUUGCUUGUCUUACCACAUGAGGAUCACCCAUGUGACAUGGGCUCCUUAUAAU [Verileve] (puzzle: Sensor v3, turn-off variant 2)
apparent KD of MS2 coat protein [1]: 14 nM
apparent KD of MS2 coat protein [2]: 9.2 nM
apparent KD of MS2 coat protein [3]: 12.5 nM

GCGAAAACAAGCAAGUGAAACAUGAGGAUCACCCAUGUCCUCAUUUGCUCGUCUUAUAAAAGCUAUCGAAAGAUAGC [Mat - Sensor v3 - turn-off var 1 - Eli Mod - D49] (puzzle: Sensor v3, turn-off variant 1)
apparent KD of MS2 coat protein [1]: 9.41 nM
apparent KD of MS2 coat protein [2]: 205 nM
apparent KD of MS2 coat protein [3]: 9.78 nM

CCACGGUGAGGAUAUCAAAGAUUGCGCUCGGAAGGUCAAUUUGAGAAGGCACAUGAGGAUCACCCAUGUUAGCG [Eternabot (L2) Solution 40] (Eterna round: R97, puzzle: Exclusion 4)
apparent KD of MS2 coat protein (input ligand: FMN 200 uM): 29.8 nM
apparent KD of MS2 coat protein (input ligand: none): 34.6 nM

AGUUAGAUAGGAUAUGCCCGAGAUAACAUGAGGAUCACCCAUGUGACCGAAUCUAUUCUAGCAGAAGGGUUUAUGA [Mod of ViennaUCT 19 - Jieux - Exclusion 5] (Eterna round: R97, puzzle: Exclusion 5)
apparent KD of MS2 coat protein (input ligand: FMN 200 uM): 40.2 nM
apparent KD of MS2 coat protein (input ligand: none): 95 nM

GUGAGCAGACGGAGAUCCUACAUGAGGAUCACCCAUGUCUCACUAGCUUUUUGCUCGUCUUAUCCUCCUCUGUUCAC [Elimod 24 - Jieux - Sensor, turn-off variant 1] (Eterna round: R97, puzzle: Sensor, turn-off variant 1)
apparent KD of MS2 coat protein (input ligand: FMN 200 uM): 21.8 nM
apparent KD of MS2 coat protein (input ligand: none): 21.6 nM

UCUUCAGCCAAGUUCACAUACAUGAGGAUCACCCAUGUUGCGUAACGCAUGCAUAUCCUAGUUGCUCGUUCUACAGU [Eternabot (L1) Solution 6] (Eterna round: R97, puzzle: Sensor, turn-off variant 1)
apparent KD of MS2 coat protein (input ligand: FMN 200 uM): 26.4 nM
apparent KD of MS2 coat protein (input ligand: none): 33.1 nM

AGCAUGUGAGGAUAUGCGGACUCCGGUAAAGCUGGAGUCCAGUAGAAGGCACAUGAGGAUCACCCAUGUGAGAU [Uszadi] (Eterna round: R96, puzzle: Exclusion 4)
apparent KD of MS2 coat protein (input ligand: FMN 200 uM): 317 nM
apparent KD of MS2 coat protein [4]: 53.3 nM
apparent KD of MS2 coat protein (input ligand: none): 63.2 nM

AGCUGUGGCCGAGGAUAUCUGAAACUCAAAACCGAAAUAUAAUCGGACAUGAGGAUCACCCAUGUAGAGAAGGCGGUCUCAGCA [Eli eng2 - 079] (Eterna round: R96, puzzle: Exclusion NG 2)
apparent KD of MS2 coat protein [4]: 126 nM

UAGUACAGAGGAUAUACAUGAGGAUCACCCAUGUGUUUCAGCUAGGAGACUAGCGAAAGUAGAAGGCUGUACUU [salish99_ex3_r4_009] (Eterna round: R97, puzzle: Exclusion 3)
apparent KD of MS2 coat protein (input ligand: FMN 200 uM): 22.4 nM
apparent KD of MS2 coat protein (input ligand: none): 8.4 nM

AGAGCCGUUGUAGGAUAUGCCCUCGGGUGAUGCCGGUCGCCACAUGAGGAUCACCCAUGUAGCGGGCAGAAGGGCAAACUCAGU [Eternabot solution 43] (Eterna round: R96, puzzle: Exclusion NG 2)
apparent KD of MS2 coat protein (input ligand: FMN 200 uM): 26.6 nM
apparent KD of MS2 coat protein [4]: 13.4 nM
apparent KD of MS2 coat protein (input ligand: none): 18.5 nM

CUUCGACAUGAGGAUCACCCAUGUCAGGAUAUUGUUUAUCUGGUGUUGUCCAGAUAUGCAAGAAGGGAUGUGUG [LRO-Excl1-04] (puzzle: Exclusion 1)
apparent KD of MS2 coat protein [2]: 33.8 nM

AUCCAACAUGAGGAUCACCCAUGUCAGGAUAUACCCAUCUCCACCUAAUCGGUGGUGGGUAGAAGGGAUAUGUC [EX1 B.10] (Eterna round: R97, puzzle: Exclusion 1)
apparent KD of MS2 coat protein (input ligand: FMN 200 uM): 22.6 nM
apparent KD of MS2 coat protein (input ligand: none): 18.9 nM

UUUAUGUCAGGAUAUGAUUAGAUCUACUUCGGUAGAUCUAAUCAGAAGGGACAUGAGGAUCACCCAUGUUUUUU [Ex4 - 3 - 16] (puzzle: Exclusion 4)
apparent KD of MS2 coat protein [2]: 41.6 nM

AUACUUGCGAAGGAUAUGUAUCAAAGGAACGAAACAGAAGGUUGAACAUGAGGAUCACCCAUGUGUUCCUCGGA [Eternabot (Original) Solution 40] (Eterna round: R97, puzzle: Exclusion 6)
apparent KD of MS2 coat protein (input ligand: FMN 200 uM): 272 nM
apparent KD of MS2 coat protein (input ligand: none): 235 nM

CCAAGCUUAUUCAUUAACCACAUGAGGAUCACCCAUGUCUAGGCAAUUAUGACUUGCCCAUCUGGUGCUCGUCUUAU [Sensor-V1 #32] (Eterna round: R97, puzzle: Sensor, turn-off variant 1)
apparent KD of MS2 coat protein (input ligand: FMN 200 uM): 32 nM
apparent KD of MS2 coat protein (input ligand: none): 32.7 nM

GACAAAGGAGGAUAUACAAUGUCCUGGUCUAACCCGAUGGCACAUGAGGAUCACCCAUGUAGAAGGCCUUUGCG [Eternabot (L1) Solution 4] (Eterna round: R97, puzzle: Exclusion 2)
apparent KD of MS2 coat protein (input ligand: FMN 200 uM): 39 nM
apparent KD of MS2 coat protein (input ligand: none): 17.6 nM

GUCACAUGGGUAUAGGAUCACAUGAGGAUCACCCAUGUGACUAACAAGCUUUUUGCUCGUCUUAUGUCUAUGUGAAU [Stov1/18-A2] (Eterna round: R97, puzzle: Sensor, turn-off variant 1)
apparent KD of MS2 coat protein (input ligand: FMN 200 uM): 26.2 nM
apparent KD of MS2 coat protein (input ligand: none): 32.4 nM

GGAACGACAGGAUAUACAUGAGGAUCACCCAUGUGAGGAAGAGUAAAGUGUGAAGGAGGUAGAAGGGUCAAGAA [AK-MS2ROC-r4-exclusion3-3] (Eterna round: R97, puzzle: Exclusion 3)
apparent KD of MS2 coat protein (input ligand: FMN 200 uM): 63.6 nM
apparent KD of MS2 coat protein (input ligand: none): 38.8 nM

CAACUGUGAGGAUAUGGUGAGUAGUGCCUGAGCGCUGCUCACCAGAAGGCACAUGAGGAUCACCCAUGUAUAAC [Mat - Exclusion 4 - Mod of JL - D4] (puzzle: Exclusion 4)
apparent KD of MS2 coat protein [2]: 35.6 nM

ACAAGCGAAAGGCUCGUCUUAUUUUUGUAGAGGUUCUAAACAUGAGGAUCACCCAUGUAGUGGCGAUGGUGGAGGUA [JR_SV3TOV2_Sub069] (puzzle: Sensor v3, turn-off variant 2)
apparent KD of MS2 coat protein [1]: 41.8 nM
apparent KD of MS2 coat protein [2]: 44.2 nM
apparent KD of MS2 coat protein [3]: 42.4 nM

GUCAGCUCGUCAGGAUAUACAUGCGUGCUUCGGCACGUAUGAUAGAUCACAUGAGGAUCACCCAUGUAGAAGGGACGAGCUGAU [ENG2/4-B2] (Eterna round: R96, puzzle: Exclusion NG 2)
apparent KD of MS2 coat protein (input ligand: FMN 200 uM): 16.6 nM
apparent KD of MS2 coat protein [4]: 10 nM
apparent KD of MS2 coat protein (input ligand: none): 14.4 nM

UUUUUCUCAGGAUAUACAUGAGGAUCACCCAUGUAUAUUAAUGAUAAUACAUGGGAAUGUAGAAGGGAGCUCAU [Omei Ex3 Pseudoloop 13] (Eterna round: R97, puzzle: Exclusion 3)
apparent KD of MS2 coat protein (input ligand: FMN 200 uM): 111 nM
apparent KD of MS2 coat protein (input ligand: none): 135 nM

GAUAGAGAGCAGGAUAUCUUGGAUAAGUAUAGUAGAGAAGGGCUCACAUGAGGAUCACCCAUGUGGUCCAAGAU [JL Dibiri mod 12] (puzzle: Exclusion 6)
apparent KD of MS2 coat protein [1]: 28 nM
apparent KD of MS2 coat protein [2]: 14.8 nM
apparent KD of MS2 coat protein [3]: 15.8 nM

GUAGAGUAAGGAUAUCGUGAAUAGGAUAGAAUGGUUAGAAACGAGAAGGUACAUGAGGAUCACCCAUGUAAUGU [Excluse me!!!! 17 - Jieux - Exclusion 4] (puzzle: Exclusion 4)
apparent KD of MS2 coat protein [2]: 20.8 nM

CCUCUACAUGAGGAUCACCCAUGUGAGGAUAUCUCGGAGCAGCCACUUAAGGCACUCCAGAGAAGGCACGUGUA [Oreresbe] (puzzle: Exclusion 1)
apparent KD of MS2 coat protein [2]: 16.6 nM

CGGAUACAUGAGGAUCACCCAUGUGAGGAUAUCGUACGUUCGUCGAAAGACGAUCGUACGAGAAGGCAUGACCG [Eli x1 4.36] (Eterna round: R97, puzzle: Exclusion 1)
apparent KD of MS2 coat protein (input ligand: FMN 200 uM): 64 nM
apparent KD of MS2 coat protein (input ligand: none): 113 nM

CCGAAUAAGCAGGAUAUCGUUUCGGAAACGAAACGAGAAGGGCUAACAUGAGGAUCACCCAUGUUCCUUAACGG [Mat - Exclusion 6 - Eli Mod - D77] (puzzle: Exclusion 6)
apparent KD of MS2 coat protein [1]: 23.9 nM
apparent KD of MS2 coat protein [2]: 18.3 nM
apparent KD of MS2 coat protein [3]: 18 nM

ACAAGCUUGUAAUGACUUAACAUGAGGAUCACCCAUGUAAAUGGAAGAACCAACUUGAUAUGAUUUACUCGUCUUAU [JR_STOV1_Sub010] (Eterna round: R97, puzzle: Sensor, turn-off variant 1)
apparent KD of MS2 coat protein (input ligand: FMN 200 uM): 1140 nM
apparent KD of MS2 coat protein (input ligand: none): 1030 nM

AAGAUGCGGGUAGGAUAUGGGAAUUAAUAAAGACCAGAAGGACUGGUCACACAACAUGAGGAUCACCCAUGUGUGUGUAGUGAA [exng1 ex1] (Eterna round: R96, puzzle: Exclusion NG 1)
apparent KD of MS2 coat protein [4]: 9.2 nM

GGAUAUAGGCGAGGAUAUACGCACCACUAACUAGUAGAAGGCGCACAUGAGGAUCACCCAUGUGAUUUCUCAAUAUGAUACACG [Prohibition 71 - Jieux - Exclusion NG 1] (Eterna round: R96, puzzle: Exclusion NG 1)
apparent KD of MS2 coat protein (input ligand: FMN 200 uM): 218 nM
apparent KD of MS2 coat protein [4]: 107 nM
apparent KD of MS2 coat protein (input ligand: none): 183 nM

GUCAUGUCAGGAUAUGCUUAUGAUGGGUGCUCAGACAUGAUGCAGAAGGGACAUGAGGAUCACCCAUGUACUGA [EX4 #15] (Eterna round: R97, puzzle: Exclusion 4)
apparent KD of MS2 coat protein (input ligand: FMN 200 uM): 84.8 nM
apparent KD of MS2 coat protein (input ligand: none): 68.3 nM

AGGUAGCAAGGAUAUACAACUUUGGGCACUGCCUCUUGGAGACAUGAGGAUCACCCAUGUAGAAGGUGCAGGCC [Tibiarusor] (puzzle: Exclusion 2)
apparent KD of MS2 coat protein [2]: 11.7 nM

CUUCGUUGCAAGGAUAUGUGAACGAAGAGGGAUACAGAAGGUGCUACAUGAGGAUCACCCAUGUGGGUUGAUUU [Eternabot (L1) Solution 48] (Eterna round: R97, puzzle: Exclusion 6)
apparent KD of MS2 coat protein (input ligand: FMN 200 uM): 363 nM
apparent KD of MS2 coat protein (input ligand: none): 226 nM

GCAGCAUUAGGAUAUUGCUAAUGUAACAUGAGGAUCACCCAUGUGUGUCGUUAUUACUUAUAAGAAGGAAUGUGCC [Eternabot (L2) Solution 88] (Eterna round: R97, puzzle: Exclusion 5)
apparent KD of MS2 coat protein (input ligand: FMN 200 uM): 24.9 nM
apparent KD of MS2 coat protein (input ligand: none): 36.4 nM

AAAGAGCGAGGAUAUGCGUGCCGGUGCGGCCAGCCGAUGUGACAUGAGGAUCACCCAUGUAGAAGGCGCAGAAA [Excls2-VIII] (puzzle: Exclusion 2)
apparent KD of MS2 coat protein [2]: 12.8 nM
